Measured values reported in the nanobody polyreactivity screen of Harvey et al. (2022).

Assay: yeast display, Sf9 membrane polyspecificity reagent, FACS + sequencing; frameworks hold sequencing errors
Summary of the method: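 Synthetic nanobody libraries on Saccharomyces cerevisiae BJ5465 were galactose-induced for 36–48 hours, stained 1 hour at 4 °C with 10% biotinylated, detergent-solubilized Sf9 membrane reagent and enriched on streptavidin microbeads. FACS then separated cells into low and high (top ~1%) gates by anti-HA (expression) and streptavidin (reagent binding) fluorescence. Genes were colony-PCR amplified, MiSeq 2 × 250 sequenced and CDR-length filtered. A clone's polyreactivity label is that of its gate of origin.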

Row | Sequence | polyreactivity (PSR sort gate)
1 | QVQLVESGGGLVQAGGSLRLSCAASGFTFVRYTMGWYRQAPGKERELVAVIRRGGSTYYADSVKGRFTISRDNAKNTVYLQMNSLKPEDTAVYYCNALSALAVEDGYWGQGTQVTVSS | low polyreactivity
2 | QVQLVESGGGLVQAGGSLRLSCAASGFTFVSYAMGWYRQAPGKERELVAAISKRGGSTSYADSVKGRFTISRDNAKNTVYLQMNSLKPEDTAGYYCAARYGSSYSWSNYWGQGTQVTVSS | high polyreactivity
3 | QVQLVESGGGLVQAGGSLRLSCAASGFTFVVYDMGWYRQAPGKESELVAVINNSGGSTYYADSVKGRFTISRDNAKNTVSLQMNSLKPEDTAVYYCATRTPVWVNTESDYWGQGTQVTVSS | low polyreactivity
4 | QVQLVESGGGLVQAGGSLRLSCAASGFTFVYYAKGWYRQAPGKERELVATISGNGGRTYYADSVKGRFTISRDNAKNTVYLQMNSLKPEDTAVYYCAALLYIRSVGYDYWGQGTQVTVSS | low polyreactivity
5 | QVQLVESGGGLVQAGGSLRLSCAASGFTFVYYAMGWYRQAPGKERALVASITQSGGSTRYADSVKGRFTISRDNAKNTVYLQMNSLKPEDTAVYYCNRRLYRRWGLDWQYYYWGQGTQVTVSS | high polyreactivity
6 | QVQLVESGGGLVQAGGSLRLSCAASGFTFVYYAMGWYRQAPGKERELVAAISRRGGNTNYADSVKGRFTISRDNEKNTVYLQMNSLKTEDTAVYYCNARLTGDRYYYYPMDYWGQGTQVTVST | high polyreactivity
7 | QVQLVESGGGLVQAGGSLRLSCAASGFTFVYYAMGWYRQAPGKERELVATISGHGGRTYYADSVKGRFTISRDNAKNTVYLQMNSLKPEDTAVYYCAALLYIRSVGYDYWGQGTQVTVSS | low polyreactivity
8 | QVQLVESGGGLVQAGGSLRLSCAASGFTFVYYTMGWSSQAPGKERELVAAISSSGGRTSYADSVKGRFTISRDNEKNTVYLQMNSLKPEDTAVYYCAARAYPTWRTYYYWGQGTQVTVSS | high polyreactivity
9 | QVQLVESGGGLVQAGGSLRLSCAASGFTFVYYVMGLYRQAPGKERELVAAINAGGGSTYYADSVKGRFTISRDNAKNTVYLQMNSLKPEDTAVYYCNARVRVRLGRNWSSYYYWGQGTQVTVST | high polyreactivity
10 | QVQLVESGGGLVQAGGSLRLSCAASGFTFVYYVMGWYRQAPGKEREKVAAINAGGGSTYYADSVKGRFTISRDNAKNTVYLQMHSLKPEDSAVYYCATRPRYYYFRYDYWGQGTQVTVSS | high polyreactivity
11 | QVQLVESGGGLVQAGGSLRLSCAASGFTFVYYVMGWYRQAPGKERELVAAINAGGGSTYYADSVKGRFTISRDNAKNTVYLQMNSLKPEDTAVYYCNARVRVRLGRNWSSYYYCGQGTQVTVSS | high polyreactivity
12 | QVQLVESGGGLVQAGGSLRLSCAASGFTFVYYVMGWYRQAPGKERELVAAINAGGGSTYYADSVKGRFTISRDNAKNTVYLQMNSLKPEDTAVYYCNARVRVRLGRNWSSYYYWGQGTQVTVSS | high polyreactivity
13 | QVQLVESGGGLVQAGGSLRLSCAASGFTFWAYAMGWYRHAPGKEMEVVAAISKTGGRTYYADSVKGRFTISRDNAKNNDYLQINSLKPEDTAVYYCAVDITGLYYPVDYWGQGTQVTVSS | high polyreactivity
14 | QVQLVESGGGLVQAGGSLRLSCAASGFTFWDYAMGWYRQAPGKERELVATISSDGSTNYADSVKGRFTISRDNAKNTVYLQMNSLKPEDTAVYYCAADGYLYFWYPYDYWGQGTQVTVSS | low polyreactivity
15 | QVQLVESGGGLVQAGGSLRLSCAASGFTFWDYAMGWYRQSPGKERELVAAISSRGTRTYYADSVKGRFTISRDNAKNTVYLQMNSLKPEDTAVYYCATAITDPDYIHNYWGQGTQVTVSS | high polyreactivity
16 | QVQLVESGGGLVQAGGSLRLSCAASGFTFWGYTMGWYRQAPGKERELVAAITSTGSTYYADSVKGRFTISRDNAKNTVYFLMNSLKPEDTAVYYCAATRGSSEYYYWGQGTQLTVSS | low polyreactivity

Row | Sequence | polyreactivity (PSR sort gate)
17 | QVQLVESGGGLVQAGGSLRLSCAASGFTFWIYAMGWYRQAPGKERELVAAISASGGSTRYADSVKVRFTISRDNAKNTVYLQMNSLKPEDTAVYYCAAYHGLRRGFDYWGPGTQVTVSS | high polyreactivity
18 | QVQLVESGGGLVQAGGSLRLSCAASGFTFWIYAMGWYRQAPGKERELVAVISRGGSTYYADSVKGRFTISRDNAKNTVYLQMNSLKPEDTAVYYCNAVGVRGYDYWGQGTQVTVSS | high polyreactivity
19 | QVQLVESGGGLVQAGGSLRLSCAASGFTFWIYAMGWYRQARGKEWELVAAISASGGYTRYADSVKGRFTISRDNAKNTVYLQMNSLKPEDTAVYYCAAYHGLRRGFDYWGEGTQVTVSS | high polyreactivity
20 | QVQLVESGGGLVQAGGSLRLSCAASGFTFWLYAMGWYRHAPAKEREFVAAISTSGGSTYADSVKGRFTISRDNAKYTVYLQMNSLKPEDTAVYYCNAGYVLYYDYHLFYWGQGTQVTVSS | low polyreactivity
21 | QVQLVESGGGLVQAGGSLRLSCAASGFTFWQYAMGWYRQAPGKERELVAAITWDGGSTYYADSVKGRFTISRDNAKNTVYLQMNSLKPEDTAVYYCAKLFGGTYYEYDYWGQGTQVTVSS | low polyreactivity
22 | QVQLVESGGGLVQAGGSLRLSCAASGFTFWRNAMGWYRQAPGKERELVAAISSGTGRTYYADSVKGRFTISRDNAKYTVYLQMNSLKPEDTAVYYCAKVNWRTSYGTSTRDYWGQGTQVTVSS | low polyreactivity
23 | QVQLVESGGGLVQAGGSLRLSCAASGFTFWRYAMGWSRQAPGKERELVAAISRTGGRTYYADSVKGRFTISRDNAKITVYLQMTSLKPEDTAVYYCAAVKYETYRYNYDYWGQGTQVTVSS | high polyreactivity
24 | QVQLVESGGGLVQAGGSLRLSCAASGFTFWRYTMGWYRQAPGKERELVAAISGGTTTYYADSVKGRFTISRDNAKNTVYLQMNSLKPEDTAVYYCAAYSQRARTYDYWGHGTQVTVSS | high polyreactivity
25 | QVQLVESGGGLVQAGGSLRLSCAASGFTFWTYAMGWYRQAPGKERELVAAIDSGGSTYYADSVKGRFTISRDNAKNTVFLQMNSLKPEDTAVYYCIAGPSVTSGYDYDYWGQGTQVTVSS | low polyreactivity
26 | QVQLVESGGGLVQAGGSLRLSCAASGFTFWTYAMGWYRQAPGKERELVAAIDSGGSTYYADSVKGRFTISRDNAKNTVYLQMNSLKPEDSAVYYCNAGPSVTSGYDYDYWGQGTQVTVSS | low polyreactivity
27 | QVQLVESGGGLVQAGGSLRLSCAASGFTFWWYAMGWYRQAPGKERELVAAISSGGSTNYADSVKGRFTISRDNAKNTVYLQMNSLKPEDTAVYYCNALGVGHSGFTKFSRYYYWGQGTQVTVSS | high polyreactivity
28 | QVQLVESGGGLVQAGGSLRLSCAASGFTFWYYAMGWYRQAPGKDRELVASISASGGRTNYADSVKGRFTISRDNAKNTVYLQMNSLKPDDTAVYYCNAASLIAAYGDYYWGQGTQVTVSS | high polyreactivity
29 | QVQLVESGGGLVQAGGSLRLSCAASGFTFWYYAMGWYRQAPGKERELVAAISWSGGSTSYADSVKGRFTISRDNAKNTVYLQMNSLKREDTAVYYCAASDYYYYSWRPGDTWYEYWGQGTQVSVSS | high polyreactivity
30 | QVQLVESGGGLVQAGGSLRLSCAASGFTFWYYAMGWYRQAPGKERELVAAITRGGNTNYADSVKGRFTISRDNAKNTVYLQMNSLKPEDTAVYYCAVRFSAPGYYYWGQGTQVTVSS | high polyreactivity
31 | QVQLVESGGGLVQAGGSLRLSCAASGFTFWYYAMGWYRQAPGKERELVATITSGDSTKYADSVKGRFTISRDNAKNTVYLQMNSLKPEDTAVYDCAAEKVLPFIGYDYWGQGTQVTVSS | low polyreactivity
32 | QVQLVESGGGLVQAGGSLRLSCAASGFTFYANAMGWYRQAPGKERELVAAISKSGGRTYYADSVKGRFTISRDNAKNTVYLQMNSLKPEDTAVYYCAAVGSVNYEADFDYWGQGTQVTVSS | high polyreactivity
